In patent US20180172683A1, “METHODS FOR ANALYZING THE INTERACTION BETWEEN A TARGET PROTEIN AND A LIGAND” (UNIVERSITY OF SOUTHERN CALIFORNIA, priority 2015, published 2018):
Ends that are not written are not given here.

B1: E1, mRNA-peptide fusion in the selection pool (HTSK) (peptide, not shown: a dimerising Fc or GST)
peptide: MIETITIYNYKKAADHFSMSM
modifications: not fully specified; also: C-terminus joined via puromycin to DNA linker and reverse-transcribed mRNA
B2: D1, mRNA-peptide fusion in the selection pool (HTSK) (peptide, not shown: a dimerising Fc or GST)
peptide: MIAISTIYNYKKAADHYAMTK
modifications: not fully specified; also: C-terminus joined via puromycin to DNA linker and reverse-transcribed mRNA
B3: D79, mRNA-peptide fusion in the doped selection pool (HTSK) (peptide, not shown: a dimerising Fc or GST)
peptide: MIDTNVILNYKKAADHFSITM
modifications: not fully specified; also: C-terminus joined via puromycin to DNA linker and reverse-transcribed mRNA

Target: B-cell lymphoma extra-large protein (Bcl-xL), first 209 amino acids with N-terminal avitag (UniProt Q07817)
Sequence (Q07817 other isoform, or with tags, fused parts or gaps): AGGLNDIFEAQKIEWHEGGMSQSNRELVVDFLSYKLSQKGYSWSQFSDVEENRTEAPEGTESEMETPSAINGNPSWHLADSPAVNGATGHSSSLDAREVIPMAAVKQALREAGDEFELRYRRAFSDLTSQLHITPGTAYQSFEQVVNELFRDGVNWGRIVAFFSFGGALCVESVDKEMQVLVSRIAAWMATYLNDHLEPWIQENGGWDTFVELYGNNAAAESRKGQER
Assay: HTSK: from on- and off-rates of the mRNA-peptide fusion

Point of comparison: B2, Kd 0.015 nM. Against it:
- B1 — 1.5-fold higher, 0.023 nM
- B3 — 6.2-fold lower, 0.0024 nM

Target: B-cell lymphoma extra-large protein (Bcl-xL), first 209 amino acids with N-terminal avitag (UniProt Q07817)
Assay: HTSK: mRNA-peptide fusion pool on Bcl-xL beads, next-generation sequencing

Point of comparison: B2, koff 1e-06 s⁻¹. Against it:
- B1 — 2.5-fold higher, 2.5e-06 s⁻¹
- B3 — 3-fold lower, 3.3e-07 s⁻¹
